From the supplement of paper PMC10065799, “High-throughput profiling of sequence recognition by tyrosine kinases and SH2 domains using bacterial peptide display” (eLife, 2023)
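Note: 11-residue human phosphosite peptides and single-mutation variants displayed on the E. coli surface, counted by deep sequencing, each peptide's frequency after selection divided by its frequency in the unselected input library; frequency after pTyr selection over input frequency; kinase dosed for 20-30% of maximal phosphorylation in three min.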

What follows are sequences tested on Fer (mouse) (assay: phosphorylation enrichment, bacterial display (enrichment ratio); higher = better substrate or ligand; peptides without Tyr show the background).
PTYENYANSTQ [SLC12A3_Y70_H69N] showed a phosphorylation enrichment of 0.69.
With VPFARYLAMNK [HARS1_Y138] the phosphorylation enrichment was 0.334.
In the case of STEEQYRICQV [EFHC1_Y115_R118C], the phosphorylation enrichment is reported as 0.598.
In the case of KFVVVYFREID [IL17RB_Y447_YF], the phosphorylation enrichment is reported as 0.446.
AVDMTYDGHPV [FLNB_Y1020_V1018M] gave a phosphorylation enrichment of 0.89.
Work on NGLVACKDGKL [PMM2_Y76_Y76C] yielded a phosphorylation enrichment of 0.419.
With FTDGQYWIRGR [ACSF3_Y466_K462T] the phosphorylation enrichment was 0.408.
Sequence MFVKSYTIHFS [F5_Y2153_YF] has a phosphorylation enrichment of 0.464.
Work on EGNEQYEGYCV [GRIA3_Y451_R450Q] yielded a phosphorylation enrichment of 1.11.
VSAPEYGPKLK [TBC1D14_Y46_L41V] showed a phosphorylation enrichment of 0.452.
Sequence VNFQPYRKHKF [TEX37_Y28_D24N_YF] has a phosphorylation enrichment of 0.373.
With VKKKLYEEIDQ [CYP17A1_Y329] the phosphorylation enrichment was 0.372.
Sequence SFPREYGSQEG [RBM10_Y48_YF] has a phosphorylation enrichment of 0.387.
KSVEEYANCHL [TF_Y593_P589S] gave a phosphorylation enrichment of 0.466.
ALHRPYGCDVE [ABL2_Y80] showed a phosphorylation enrichment of 0.538.
Sequence TQNAVYSAANF [DDX5_Y535_G533A_YF] has a phosphorylation enrichment of 6.31.
With SPYMLYQYLKQ [RPAP3_Y567_D564Y] the phosphorylation enrichment was 10.6.
Sequence CASQLCPRHKH [DCTN4_Y263_Y263C] has a phosphorylation enrichment of 0.367.
Sequence TWEKPYECVQC [ZNF24_Y335_G331W] has a phosphorylation enrichment of 4.82.
Sequence SVVVPNEPPEV [TP53_Y220_Y220N] has a phosphorylation enrichment of 0.691.
In the case of FSNPAYFVLEG [INPPL1_Y986_N982S_YF], the phosphorylation enrichment is reported as 0.564.
With GLRYGYGVLGG [KRTAP20-2_Y15] the phosphorylation enrichment was 0.432.
With QDGYSYPSRQM [LDLR_Y847] the phosphorylation enrichment was 0.557.
For WHFTFYNELRV [ACTC1_Y93_H90Y_YF], the phosphorylation enrichment was 0.578.
For QEGPEYWDRNT [HLA-B_Y83], the phosphorylation enrichment was 0.557.
VQVAFYTVMMN [SPATA17_Y84_M86V_YF] showed a phosphorylation enrichment of 0.677.
YCVDCYKNFVA [FHL1_Y213] gave a phosphorylation enrichment of 0.532.
With FCRHNYGVGES [HLA-DRB1_Y112_V115G_YF] the phosphorylation enrichment was 0.396.
KRLYAYKMLMA [TMC2_Y209_Q205R] was tested, and the phosphorylation enrichment was 0.42.

The sequences below were run on AncSZ in the same assay as above.
PTYENYANSTQ [SLC12A3_Y70_H69N] was tested, and the phosphorylation enrichment was 1.06.
VPFARYLAMNK [HARS1_Y138] showed a phosphorylation enrichment of 0.432.
Work on STEEQYRICQV [EFHC1_Y115_R118C] yielded a phosphorylation enrichment of 1.09.
KFVVVYFREID [IL17RB_Y447_YF] was tested, and the phosphorylation enrichment was 1.2.
With AVDMTYDGHPV [FLNB_Y1020_V1018M] the phosphorylation enrichment was 1.19.
Sequence NGLVACKDGKL [PMM2_Y76_Y76C] has a phosphorylation enrichment of 0.486.
FTDGQYWIRGR [ACSF3_Y466_K462T] showed a phosphorylation enrichment of 1.02.
In the case of MFVKSYTIHFS [F5_Y2153_YF], the phosphorylation enrichment is reported as 1.
EGNEQYEGYCV [GRIA3_Y451_R450Q] showed a phosphorylation enrichment of 1.19.
With VSAPEYGPKLK [TBC1D14_Y46_L41V] the phosphorylation enrichment was 0.644.
Work on VNFQPYRKHKF [TEX37_Y28_D24N_YF] yielded a phosphorylation enrichment of 0.546.
For VKKKLYEEIDQ [CYP17A1_Y329], the phosphorylation enrichment was 0.924.
SFPREYGSQEG [RBM10_Y48_YF] gave a phosphorylation enrichment of 0.715.
KSVEEYANCHL [TF_Y593_P589S] was tested, and the phosphorylation enrichment was 0.756.
ALHRPYGCDVE [ABL2_Y80] showed a phosphorylation enrichment of 0.871.
For TQNAVYSAANF [DDX5_Y535_G533A_YF], the phosphorylation enrichment was 0.634.
With SPYMLYQYLKQ [RPAP3_Y567_D564Y] the phosphorylation enrichment was 1.39.
Sequence CASQLCPRHKH [DCTN4_Y263_Y263C] has a phosphorylation enrichment of 0.477.
TWEKPYECVQC [ZNF24_Y335_G331W] showed a phosphorylation enrichment of 0.904.
In the case of SVVVPNEPPEV [TP53_Y220_Y220N], the phosphorylation enrichment is reported as 1.03.
FSNPAYFVLEG [INPPL1_Y986_N982S_YF] gave a phosphorylation enrichment of 1.01.
GLRYGYGVLGG [KRTAP20-2_Y15] was tested, and the phosphorylation enrichment was 0.596.
Sequence QDGYSYPSRQM [LDLR_Y847] has a phosphorylation enrichment of 1.98.
With WHFTFYNELRV [ACTC1_Y93_H90Y_YF] the phosphorylation enrichment was 1.42.
For QEGPEYWDRNT [HLA-B_Y83], the phosphorylation enrichment was 1.36.
VQVAFYTVMMN [SPATA17_Y84_M86V_YF] gave a phosphorylation enrichment of 1.18.
YCVDCYKNFVA [FHL1_Y213] gave a phosphorylation enrichment of 0.668.
For FCRHNYGVGES [HLA-DRB1_Y112_V115G_YF], the phosphorylation enrichment was 0.657.
For KRLYAYKMLMA [TMC2_Y209_Q205R], the phosphorylation enrichment was 0.731.

These sequences were tested against FGFR3 (UniProt P22607) in the same assay as above.
Chain of FGFR3 (P22607 whole entry, looked up): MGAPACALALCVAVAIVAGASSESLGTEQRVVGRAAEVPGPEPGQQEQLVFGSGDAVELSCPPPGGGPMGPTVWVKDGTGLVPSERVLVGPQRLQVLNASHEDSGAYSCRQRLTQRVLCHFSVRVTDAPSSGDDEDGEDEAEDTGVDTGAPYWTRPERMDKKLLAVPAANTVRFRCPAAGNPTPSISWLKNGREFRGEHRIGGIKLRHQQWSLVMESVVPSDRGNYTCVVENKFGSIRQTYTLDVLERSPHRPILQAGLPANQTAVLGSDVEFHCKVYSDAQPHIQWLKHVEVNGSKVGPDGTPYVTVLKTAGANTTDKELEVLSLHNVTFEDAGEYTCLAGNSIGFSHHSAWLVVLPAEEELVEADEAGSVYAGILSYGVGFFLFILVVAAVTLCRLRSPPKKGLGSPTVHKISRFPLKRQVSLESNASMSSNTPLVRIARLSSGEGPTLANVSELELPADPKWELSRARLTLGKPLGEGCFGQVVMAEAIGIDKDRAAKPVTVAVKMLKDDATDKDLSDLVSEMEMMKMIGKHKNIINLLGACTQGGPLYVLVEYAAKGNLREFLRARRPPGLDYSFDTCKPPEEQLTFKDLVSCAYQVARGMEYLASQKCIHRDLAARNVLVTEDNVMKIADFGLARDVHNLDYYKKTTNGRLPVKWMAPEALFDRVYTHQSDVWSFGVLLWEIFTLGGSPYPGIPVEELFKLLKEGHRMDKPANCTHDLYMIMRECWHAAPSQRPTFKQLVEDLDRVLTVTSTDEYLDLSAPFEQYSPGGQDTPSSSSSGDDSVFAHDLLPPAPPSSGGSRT
PTYENYANSTQ [SLC12A3_Y70_H69N] gave a phosphorylation enrichment of 0.555.
VPFARYLAMNK [HARS1_Y138] showed a phosphorylation enrichment of 0.442.
Sequence STEEQYRICQV [EFHC1_Y115_R118C] has a phosphorylation enrichment of 0.848.
KFVVVYFREID [IL17RB_Y447_YF] gave a phosphorylation enrichment of 0.691.
With AVDMTYDGHPV [FLNB_Y1020_V1018M] the phosphorylation enrichment was 0.737.
NGLVACKDGKL [PMM2_Y76_Y76C] showed a phosphorylation enrichment of 0.484.
For FTDGQYWIRGR [ACSF3_Y466_K462T], the phosphorylation enrichment was 0.555.
For MFVKSYTIHFS [F5_Y2153_YF], the phosphorylation enrichment was 0.736.
In the case of EGNEQYEGYCV [GRIA3_Y451_R450Q], the phosphorylation enrichment is reported as 0.691.
For VSAPEYGPKLK [TBC1D14_Y46_L41V], the phosphorylation enrichment was 0.504.
In the case of VNFQPYRKHKF [TEX37_Y28_D24N_YF], the phosphorylation enrichment is reported as 0.371.
Sequence VKKKLYEEIDQ [CYP17A1_Y329] has a phosphorylation enrichment of 0.601.
SFPREYGSQEG [RBM10_Y48_YF] was tested, and the phosphorylation enrichment was 0.567.
KSVEEYANCHL [TF_Y593_P589S] was tested, and the phosphorylation enrichment was 0.666.
ALHRPYGCDVE [ABL2_Y80] was tested, and the phosphorylation enrichment was 0.531.
TQNAVYSAANF [DDX5_Y535_G533A_YF] was tested, and the phosphorylation enrichment was 0.515.
SPYMLYQYLKQ [RPAP3_Y567_D564Y] showed a phosphorylation enrichment of 4.11.
CASQLCPRHKH [DCTN4_Y263_Y263C] gave a phosphorylation enrichment of 0.332.
With TWEKPYECVQC [ZNF24_Y335_G331W] the phosphorylation enrichment was 0.648.
SVVVPNEPPEV [TP53_Y220_Y220N] gave a phosphorylation enrichment of 0.81.
Sequence FSNPAYFVLEG [INPPL1_Y986_N982S_YF] has a phosphorylation enrichment of 4.24.
With GLRYGYGVLGG [KRTAP20-2_Y15] the phosphorylation enrichment was 0.497.
Sequence QDGYSYPSRQM [LDLR_Y847] has a phosphorylation enrichment of 0.87.
With WHFTFYNELRV [ACTC1_Y93_H90Y_YF] the phosphorylation enrichment was 1.07.
QEGPEYWDRNT [HLA-B_Y83] showed a phosphorylation enrichment of 0.913.
Sequence VQVAFYTVMMN [SPATA17_Y84_M86V_YF] has a phosphorylation enrichment of 0.959.
With YCVDCYKNFVA [FHL1_Y213] the phosphorylation enrichment was 0.651.
FCRHNYGVGES [HLA-DRB1_Y112_V115G_YF] showed a phosphorylation enrichment of 0.573.
KRLYAYKMLMA [TMC2_Y209_Q205R] was tested, and the phosphorylation enrichment was 0.568.

These sequences were tested against Hck (UniProt P08631) in the same assay as above.
Chain of Hck (P08631 whole entry, looked up): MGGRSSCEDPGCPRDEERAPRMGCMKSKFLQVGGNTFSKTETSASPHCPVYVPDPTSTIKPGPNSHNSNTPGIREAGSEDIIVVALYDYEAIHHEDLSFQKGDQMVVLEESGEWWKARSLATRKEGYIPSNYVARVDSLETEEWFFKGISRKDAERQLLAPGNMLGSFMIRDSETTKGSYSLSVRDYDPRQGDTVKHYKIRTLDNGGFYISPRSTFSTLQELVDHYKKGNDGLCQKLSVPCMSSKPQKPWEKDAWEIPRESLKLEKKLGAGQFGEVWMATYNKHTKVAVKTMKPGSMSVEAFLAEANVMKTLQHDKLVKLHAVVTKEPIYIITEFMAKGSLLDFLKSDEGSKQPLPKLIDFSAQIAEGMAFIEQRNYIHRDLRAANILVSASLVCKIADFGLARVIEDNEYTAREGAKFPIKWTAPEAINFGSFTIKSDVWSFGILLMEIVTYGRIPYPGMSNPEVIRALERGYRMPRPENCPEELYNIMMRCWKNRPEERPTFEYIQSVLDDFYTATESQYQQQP
With PTYENYANSTQ [SLC12A3_Y70_H69N] the phosphorylation enrichment was 2.12.
VPFARYLAMNK [HARS1_Y138] was tested, and the phosphorylation enrichment was 0.381.
Work on STEEQYRICQV [EFHC1_Y115_R118C] yielded a phosphorylation enrichment of 0.52.
With KFVVVYFREID [IL17RB_Y447_YF] the phosphorylation enrichment was 0.538.
AVDMTYDGHPV [FLNB_Y1020_V1018M] showed a phosphorylation enrichment of 3.87.
In the case of NGLVACKDGKL [PMM2_Y76_Y76C], the phosphorylation enrichment is reported as 0.401.
Sequence FTDGQYWIRGR [ACSF3_Y466_K462T] has a phosphorylation enrichment of 1.03.
MFVKSYTIHFS [F5_Y2153_YF] was tested, and the phosphorylation enrichment was 0.495.
In the case of EGNEQYEGYCV [GRIA3_Y451_R450Q], the phosphorylation enrichment is reported as 0.604.
VSAPEYGPKLK [TBC1D14_Y46_L41V] was tested, and the phosphorylation enrichment was 0.465.
Work on VNFQPYRKHKF [TEX37_Y28_D24N_YF] yielded a phosphorylation enrichment of 0.459.
VKKKLYEEIDQ [CYP17A1_Y329] showed a phosphorylation enrichment of 0.493.
In the case of SFPREYGSQEG [RBM10_Y48_YF], the phosphorylation enrichment is reported as 0.565.
Sequence KSVEEYANCHL [TF_Y593_P589S] has a phosphorylation enrichment of 0.486.
ALHRPYGCDVE [ABL2_Y80] was tested, and the phosphorylation enrichment was 0.379.
With TQNAVYSAANF [DDX5_Y535_G533A_YF] the phosphorylation enrichment was 12.
SPYMLYQYLKQ [RPAP3_Y567_D564Y] showed a phosphorylation enrichment of 7.66.
CASQLCPRHKH [DCTN4_Y263_Y263C] was tested, and the phosphorylation enrichment was 0.326.
In the case of TWEKPYECVQC [ZNF24_Y335_G331W], the phosphorylation enrichment is reported as 0.623.
For SVVVPNEPPEV [TP53_Y220_Y220N], the phosphorylation enrichment was 0.581.
Work on FSNPAYFVLEG [INPPL1_Y986_N982S_YF] yielded a phosphorylation enrichment of 0.451.
GLRYGYGVLGG [KRTAP20-2_Y15] showed a phosphorylation enrichment of 0.443.
Work on QDGYSYPSRQM [LDLR_Y847] yielded a phosphorylation enrichment of 0.475.
WHFTFYNELRV [ACTC1_Y93_H90Y_YF] was tested, and the phosphorylation enrichment was 0.635.
In the case of QEGPEYWDRNT [HLA-B_Y83], the phosphorylation enrichment is reported as 0.685.
Sequence VQVAFYTVMMN [SPATA17_Y84_M86V_YF] has a phosphorylation enrichment of 0.605.
Sequence YCVDCYKNFVA [FHL1_Y213] has a phosphorylation enrichment of 0.54.
Sequence FCRHNYGVGES [HLA-DRB1_Y112_V115G_YF] has a phosphorylation enrichment of 0.339.
Work on KRLYAYKMLMA [TMC2_Y209_Q205R] yielded a phosphorylation enrichment of 0.436.
